In paper PMC7360590, “Structural basis of SALM3 dimerization and synaptic adhesion complex formation with PTPσ” (Scientific Reports, 2020):
Substitutions are numbered along the chain they refer to. Names may count otherwise. One block for each molecule: values may come before it.

T1: mouse SALM3 LRR-Ig-Fn (residues 17–510), wild type, displayed on HEK293T cells (mouse, UniProt Q80XU8 17-510)
T1 construct: SALM3 (LRFN4), mouse, extracellular LRR-Ig-Fn, residues 17-510; also called WT SALM3; SALM3-pDisplay; source: HEK293T, transfected (pDisplay), on the cell surface; not shown: HA, N-terminal, kept; transmembrane domain (from the vector pDisplay), C-terminal, kept
T1 sequence (looked up): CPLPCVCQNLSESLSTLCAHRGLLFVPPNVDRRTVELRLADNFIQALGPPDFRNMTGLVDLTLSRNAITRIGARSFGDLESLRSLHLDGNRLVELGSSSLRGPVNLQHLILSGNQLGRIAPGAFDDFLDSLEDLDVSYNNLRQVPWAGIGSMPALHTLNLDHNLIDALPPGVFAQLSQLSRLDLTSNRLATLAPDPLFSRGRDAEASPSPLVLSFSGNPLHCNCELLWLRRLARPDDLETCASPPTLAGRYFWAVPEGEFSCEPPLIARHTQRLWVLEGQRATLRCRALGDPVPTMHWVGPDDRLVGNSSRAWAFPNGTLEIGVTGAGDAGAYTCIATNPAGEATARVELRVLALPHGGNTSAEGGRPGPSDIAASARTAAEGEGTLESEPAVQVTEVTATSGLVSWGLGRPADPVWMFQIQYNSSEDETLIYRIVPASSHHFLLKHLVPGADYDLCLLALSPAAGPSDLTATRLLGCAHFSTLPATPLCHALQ

T2: PTPσ-Fc fusion protein, B0V2N1
T2 chain: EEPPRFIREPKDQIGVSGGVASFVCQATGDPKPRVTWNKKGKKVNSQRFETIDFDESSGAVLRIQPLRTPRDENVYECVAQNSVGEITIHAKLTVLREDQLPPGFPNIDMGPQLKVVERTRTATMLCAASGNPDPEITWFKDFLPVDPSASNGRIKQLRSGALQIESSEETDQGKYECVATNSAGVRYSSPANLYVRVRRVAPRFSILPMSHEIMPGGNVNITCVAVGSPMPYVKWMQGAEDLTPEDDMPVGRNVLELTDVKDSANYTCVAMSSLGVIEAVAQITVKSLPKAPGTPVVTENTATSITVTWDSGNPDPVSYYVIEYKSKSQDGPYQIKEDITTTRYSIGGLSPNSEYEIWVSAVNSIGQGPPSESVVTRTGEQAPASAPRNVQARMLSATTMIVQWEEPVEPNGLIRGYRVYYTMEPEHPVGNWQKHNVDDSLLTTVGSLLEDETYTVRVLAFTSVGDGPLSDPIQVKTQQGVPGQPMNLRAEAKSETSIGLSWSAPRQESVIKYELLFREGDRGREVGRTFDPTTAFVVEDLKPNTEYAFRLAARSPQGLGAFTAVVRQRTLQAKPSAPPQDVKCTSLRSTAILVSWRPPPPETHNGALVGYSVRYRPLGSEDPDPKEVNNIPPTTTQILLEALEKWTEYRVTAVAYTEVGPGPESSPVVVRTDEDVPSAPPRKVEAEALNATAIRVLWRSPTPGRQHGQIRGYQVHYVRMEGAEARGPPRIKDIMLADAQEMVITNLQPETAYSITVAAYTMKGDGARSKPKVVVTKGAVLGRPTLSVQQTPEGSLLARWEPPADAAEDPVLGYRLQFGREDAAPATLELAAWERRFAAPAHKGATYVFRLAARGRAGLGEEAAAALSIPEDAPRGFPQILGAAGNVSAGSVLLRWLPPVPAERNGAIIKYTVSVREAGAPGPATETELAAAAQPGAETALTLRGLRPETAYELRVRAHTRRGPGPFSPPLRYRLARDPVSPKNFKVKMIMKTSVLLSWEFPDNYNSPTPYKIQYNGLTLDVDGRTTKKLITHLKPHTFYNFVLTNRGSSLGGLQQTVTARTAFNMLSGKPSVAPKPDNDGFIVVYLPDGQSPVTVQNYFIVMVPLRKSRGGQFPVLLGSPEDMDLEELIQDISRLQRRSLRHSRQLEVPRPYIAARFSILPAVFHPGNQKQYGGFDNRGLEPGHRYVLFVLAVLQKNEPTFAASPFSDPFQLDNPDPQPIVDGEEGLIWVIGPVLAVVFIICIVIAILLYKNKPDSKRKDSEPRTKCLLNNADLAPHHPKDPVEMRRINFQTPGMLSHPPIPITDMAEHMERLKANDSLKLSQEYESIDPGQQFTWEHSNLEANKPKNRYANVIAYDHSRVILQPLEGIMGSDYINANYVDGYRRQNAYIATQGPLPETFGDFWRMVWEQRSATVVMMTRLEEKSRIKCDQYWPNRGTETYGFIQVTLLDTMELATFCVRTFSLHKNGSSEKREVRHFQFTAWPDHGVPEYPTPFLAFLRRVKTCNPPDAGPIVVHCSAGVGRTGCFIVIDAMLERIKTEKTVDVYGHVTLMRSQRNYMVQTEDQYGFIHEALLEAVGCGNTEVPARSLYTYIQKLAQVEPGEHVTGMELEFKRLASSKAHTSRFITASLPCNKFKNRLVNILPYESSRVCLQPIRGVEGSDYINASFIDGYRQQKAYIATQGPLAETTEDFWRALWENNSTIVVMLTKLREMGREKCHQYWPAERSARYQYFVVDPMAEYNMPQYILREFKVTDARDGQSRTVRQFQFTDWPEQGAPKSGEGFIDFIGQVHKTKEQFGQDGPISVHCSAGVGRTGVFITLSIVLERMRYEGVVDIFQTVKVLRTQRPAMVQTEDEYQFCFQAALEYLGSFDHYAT

B1: PTPσ-Fc fusion protein (Fc fusion)
chain: PRFIREPKDQIGVSGGVASFVCQATGDPKPRVTWNKKGKKVNSQRFETIDFDESSGAVLRIQPLRTPRDENVYECVAQNSVGEITIHAKLTVLREDQLPPGFPNIDMGPQLKVVERTRTATMLCAASGNPDPEITWFKDFLPVDPSASNGRIKQLRSGALQIESSEETDQGKYECVATNSAGVRYSSPANLYVRVRRVAPRFSILPMSHEIMPGGNVNITCVAVGSPMPYVKWMQGAEDLTPEDDMPVGRNVLELTDVKDSANYTCVAMSSLGVIEAVAQITVKSLPKAPGTPVV
B2: Mouse SALM3 LRR (residues 17–284) (domain or fragment, UniProt Q80XU8 17-284, looked up)
chain: CPLPCVCQNLSESLSTLCAHRGLLFVPPNVDRRTVELRLADNFIQALGPPDFRNMTGLVDLTLSRNAITRIGARSFGDLESLRSLHLDGNRLVELGSSSLRGPVNLQHLILSGNQLGRIAPGAFDDFLDSLEDLDVSYNNLRQVPWAGIGSMPALHTLNLDHNLIDALPPGVFAQLSQLSRLDLTSNRLATLAPDPLFSRGRDAEASPSPLVLSFSGNPLHCNCELLWLRRLARPDDLETCASPPTLAGRYFWAVPEGEFSCEPPLIA
modifications: N-glycan at Asn25 (partly visible in one monomer)
notes: SALM3 (LRFN4), mouse, LRR domain, residues 17-284; residues of the Prescission site may remain at the C-terminus after cleavage; also called SALM3 LRR domain; SALM3 LRR construct; not shown: Fc, C-terminal, cleaved
B3: mouse SALM3 LRR-Ig-Fn (residues 17–510), wild type, displayed on HEK293T cells, Q80XU8 L282R; R285A (protein)
chain: T1 sequence (looked up) with L266R, R269A
B4: mouse SALM3 LRR-Ig-Fn (residues 17–510), wild type, displayed on HEK293T cells, Q80XU8 R247A (protein)
chain: T1 sequence (looked up) with R231A
B5: mouse SALM3 LRR-Ig-Fn (residues 17–510), wild type, displayed on HEK293T cells, Q80XU8 L321A; H313A (protein)
chain: T1 sequence (looked up) with H297A, L305A
B6: mouse SALM3 LRR-Ig-Fn (residues 17–510), wild type, displayed on HEK293T cells, Q80XU8 R285A; L305A (protein)
chain: T1 sequence (looked up) with R269A, L289A
B7: mouse SALM3 LRR-Ig-Fn (residues 17–510), wild type, displayed on HEK293T cells, Q80XU8 R107S; Q131A (protein)
chain: T1 sequence (looked up) with R91S, Q115A
B8: SALM3 LRR-Ig (residues 17–367) (domain or fragment, mouse, UniProt Q80XU8 17-367, looked up)
chain: CPLPCVCQNLSESLSTLCAHRGLLFVPPNVDRRTVELRLADNFIQALGPPDFRNMTGLVDLTLSRNAITRIGARSFGDLESLRSLHLDGNRLVELGSSSLRGPVNLQHLILSGNQLGRIAPGAFDDFLDSLEDLDVSYNNLRQVPWAGIGSMPALHTLNLDHNLIDALPPGVFAQLSQLSRLDLTSNRLATLAPDPLFSRGRDAEASPSPLVLSFSGNPLHCNCELLWLRRLARPDDLETCASPPTLAGRYFWAVPEGEFSCEPPLIARHTQRLWVLEGQRATLRCRALGDPVPTMHWVGPDDRLVGNSSRAWAFPNGTLEIGVTGAGDAGAYTCIATNPAGEATARVELR
notes: SALM3 (LRFN4), mouse, LRR and Ig domains, residues 17-367; also called SALM3 LRR-Ig construct; source: purified
B9: mouse PTPσ Ig1-3-meB+ (residues 33–331) (domain or fragment, UniProt B0V2N1 33-331, looked up)
chain: PRFIREPKDQIGVSGGVASFVCQATGDPKPRVTWNKKGKKVNSQRFETIDFDESSGAVLRIQPLRTPRDENVYECVAQNSVGEITIHAKLTVLREDQLPPGFPNIDMGPQLKVVERTRTATMLCAASGNPDPEITWFKDFLPVDPSASNGRIKQLRSGALQIESSEETDQGKYECVATNSAGVRYSSPANLYVRVRRVAPRFSILPMSHEIMPGGNVNITCVAVGSPMPYVKWMQGAEDLTPEDDMPVGRNVLELTDVKDSANYTCVAMSSLGVIEAVAQITVKSLPKAPGTPVVTENT
notes: Receptor protein tyrosine phosphatase sigma (PTPσ), mouse, Ig1-Ig3 domains, splice form with mini-exon B (meB+), residues 33-331; The meB+ splice form is meant; also called PTPσ_(Ig1-Ig3); PTPσ Ig1-Ig3; source: purified

Experiments:
[1] = biological target: purified SALM3 Thr354Arg-Glu359Ala mutant protein (mouse); assay: not stated; oligomeric state in solution of purified SALM3 double mutants against the wild type (Supplementary Fig. S8)
[2] = biological target: purified SALM3 Leu282Arg-Arg285Ala mutant protein (mouse); assay: as above
[3] = biological target: T1, mouse SALM3 LRR-Ig-Fn (residues …); assay: in-cell Western (cell-based binding assay); apparent; concentration series of soluble PTPσ-Fc (1–250 nM) on SALM3-transfected HEK293T cells in 96-well plates, EGB buffer with 1% BSA, overnight at 4 °C; detected with anti-human IgG IRDye 800CW; settings: one partner purified
[4] = biological target: the molecule itself; assay: SEC-MALS; SEC–MALLS; Superdex 75 10/300, 0.5 ml/min, 20 mM Tris pH 7.4, 150 mM NaCl; 100 µL injected at 1.5 mg/ml (conditions told for the LRR construct)
[5] = biological target: T2, PTPσ-Fc fusion protein, B0V2N1; assay: in-cell western cell binding assay; settings: chain shown with the change; 150 nM PTPσ-Fc; SALM3 expressed on the surface of HEK293T cells; parent: est. 49000; read off a plot
[6] = biological target: B8; assay: SEC-SAXS; SALM3 LRR-Ig (60 µM) and PTPσ (80 µM) mixed, 1 h at 4 °C; Superdex 200 PC 3.2/30, 30 mM Tris HCl pH 7.5, 150 mM NaCl, 4 °C; rigid body (CORAL) and ab initio (DAMMIN) modelling; settings: both partners purified

stoichiometry N [1]: 2
Molecule: purified SALM3 Thr354Arg-Glu359Ala mutant protein (domain or fragment)

stoichiometry N [2]: 2
Molecule: purified SALM3 Leu282Arg-Arg285Ala mutant protein (domain or fragment)

Molecule: B1
Kd [3]: 22.3 ± 5 nM

Molecule: B2
stoichiometry N [4]: 2

Molecule: B3
response [5]: 2500

Molecule: B4
response [5]: 2500

Molecule: B5
response [5]: 2800

Molecule: B6
response [5]: 4000

Molecule: B7
response [5]: 2800

Molecule: B8
stoichiometry N [4]: 2

Molecule: B9
stoichiometry N [6]: 1 PTPσ per SALM3 (2:2 complex)
